These results are taken from publication PMC5078848, “NtKRP, a kinesin-12 protein, regulates embryo/seed size and seed germination via involving in cell cycle progression at the G2/M transition” (Scientific Reports, 2016).

Data set [1] addresses microtubules (polymerized tubulin, taxol-stabilised).
Data set [2] has as its target T1, MBP-NtKRP-Motor (Nicotiana tabacum, UniProt A0A0D3QSP8).
T1 construct: gene KRP; MBP-tagged motor domain, purified; motor 1-556 elsewhere
T1 sequence (A0A0D3QSP8 55-470 limits assumed): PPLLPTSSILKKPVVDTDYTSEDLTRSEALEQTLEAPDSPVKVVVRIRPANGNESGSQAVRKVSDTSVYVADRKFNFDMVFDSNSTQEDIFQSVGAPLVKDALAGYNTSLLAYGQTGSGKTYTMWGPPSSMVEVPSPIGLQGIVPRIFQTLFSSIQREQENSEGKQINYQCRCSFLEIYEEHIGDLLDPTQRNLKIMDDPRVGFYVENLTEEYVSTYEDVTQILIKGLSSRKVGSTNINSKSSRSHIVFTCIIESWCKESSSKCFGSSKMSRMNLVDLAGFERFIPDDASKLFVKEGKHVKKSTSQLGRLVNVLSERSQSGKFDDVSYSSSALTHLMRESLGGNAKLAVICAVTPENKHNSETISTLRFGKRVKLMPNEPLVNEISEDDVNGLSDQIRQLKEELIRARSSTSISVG
Put plainly: microtubule co-sedimentation, SDS-PAGE. In kind it is binding. The note with it: taxol-stabilised microtubules, PEM buffer with 1 mM MgCl2, pH 6.8; nucleotide 5 µM.

Data set [3] concerns the target microtubules (polymerized tubulin, taxol-stabilised). Put plainly: co-sedimentation; 100 uL with 25 ug taxol-stabilised MTs and 50 ug NtKRP-motor in PEM buffer pH 6.8; without nucleotide, with ATP or with AMPPNP; room temperature 30 min, 25,000 x g 20 min at 25 C; SDS-PAGE of supernatant and pellet, Coomassie.
Substrate in data set [4]: Nc1ncnc2c1ncn2[C@@H]1O[C@H](COP(=O)(O)OP(=O)(O)OP(=O)(O)O)[C@@H](O)[C@H]1O
As to the kind of experiment: isothermal titration calorimetry ATPase assay. The following applies: microtubules 4.4 µM (Methods print 1.67 µM MTs), 10 µM taxol, BRB80 with 1 mM MgCl2, 50 mM NaCl, pH 6.8, 25 °C. In kind it is biochemical, Nicotiana tabacum. On the technique in general: ITC needs no label: the signal is the heat of the interaction.

For “recombinant NtKRP motor domain (amino acids 1–556) (domain or fragment)”, in data set [1], the K0.5,MT of the MT-stimulated ATPase activity of the motor domain (coupled enzyme assay, 1 mM ATP, 0-5 uM MTs) came out at 22 µM.

`Nc1ncnc2c1ncn2[C@@H]1O[C@H](COP(=O)(O)OP(=O)(O)NP(=O)(O)O)[C@@H](O)[C@H]1O` [AMPPNP]: the “microtubule co-sedimentation, SDS-PAGE” value in data set [2] was “nonhydrolyzable ATP analog AMPPNP was used in place of ATP, most of the fusion protein”.

`Nc1ncnc2c1ncn2[C@@H]1O[C@H](COP(=O)(O)OP(=O)(O)OP(=O)(O)O)[C@@H](O)[C@H]1O` [ATP]: in data set [2], the “microtubule co-sedimentation, SDS-PAGE” value is “The addition of ATP significantly reduced the amount of the fusion protein co-sediment”.

In turn, “MBP-NtKRP motor domain fusion protein (domain or fragment)” registered a percent coprecipitated with MTs (absence of ATP) in data set [3] of 50%.

B1: NtKRP motor domain (recombinant motor protein, amino acids 1–556) (Nicotiana tabacum) (protein)
chain: MSENRFLGNISASSIRNLLPKSVSTKKKLNSSRFKHKMNSENVAPIDPNIQITDPPLLPTSSILKKPVVDTDYTSEDLTRSEALEQTLEAPDSPVKVVVRIRPANGNESGSQAVRKVSDTSVYVADRKFNFDMVFDSNSTQEDIFQSVGAPLVKDALAGYNTSLLAYGQTGSGKTYTMWGPPSSMVEVPSPIGLQGIVPRIFQTLFSSIQREQENSEGKQINYQCRCSFLEIYEEHIGDLLDPTQRNLKIMDDPRVGFYVENLTEEYVSTYEDVTQILIKGLSSRKVGSTNINSKSSRSHIVFTCIIESWCKESSSKCFGSSKMSRMNLVDLAGFERFIPDDASKLFVKEGKHVKKSTSQLGRLVNVLSERSQSGKFDDVSYSSSALTHLMRESLGGNAKLAVICAVTPENKHNSETISTLRFGKRVKLMPNEPLVNEISEDDVNGLSDQIRQLKEELIRARSSTSISVGSNGYFRGPNVRESLNQLRVSLNRSLILPSIDNDREEEIHINEDDIKELQLQIDNLRGSHGDNSKETLEKKDSLKYSSGESEHYLSC
notes: N-terminal motor domain fragment, residues 1-556 of 1194 (full length 134 kDa); recombinant
As a reminder, the Km is the concentration of substrate that gives half-maximal velocity. As a reminder, the kcat is the maximal rate divided by the concentration of active sites. For B1, in data set [4], the Km was 2.4 µM and the kcat is 80.3 s⁻¹.
